Results on 167 variants are retold here after the RNAGym collection of RNA variant scans (doi:10.7554/elife.80360).

B1: HDV Ribozyme (parent)
chain: GGCCGGCAUGGUCCCAGCCUCCUCGCUGGCGCCGGCUGGGCAACAUUCCGAGGGGACCGUCCCCUCGGUAAUGGCGAAUGGGACCCA

The variants in this data set derive from B1. The data set is described as follows: self-cleavage, relative activity (ratio to wild type); higher = more cleavage; co-transcriptional.
Turning to G6A C7A, the self-cleavage came out at 0.185. The value for G6A C7G was 0.208; that for G5U G73C was 0.249. The same measure for C7A U12G: 0.237. The same measure for G6C A45G: 0.361; for G6C A45U: 0.0615; for G6A C13U: 0.145. Consider G6A C24G, for which the self-cleavage is 0.108. On to G6A G67C, for which the self-cleavage was 0.643.

As for G6U U20A, the self-cleavage is 0.0978. As for G6U U20C, the self-cleavage amounted to 0.133. Consider G5U G81U, for which the self-cleavage came out at 0.166.

As to G6U C24G, the self-cleavage was 0.0462. In the case of C7G C13U, the self-cleavage came to 0.158.

Consider C7G C13G, for which the self-cleavage was 0.0554. In the case of G6C U69G, the self-cleavage worked out at 0.166. In the case of C7A G80U, the self-cleavage turned out to be 0.152. The value for C7A G80A was 0.0739. As to C7A C44G, the self-cleavage is 0.0594.

As to C7A C44U, the self-cleavage was determined as 0.0723.

As for G6C U9A, the self-cleavage stood at 0.256. The value for G6A A83C was 0.291; that for G6A A83G was 0.302; that for C7A G54C was 0.8.

Consider G6A C61U, for which the self-cleavage was found to be 0.899. The same measure for C7A A51U: 0.538; for G6C C36A: 0.095. The value for G6C C21A was 0; that for G6A G10A was 0.372; that for G6A C66U was 0.521. The same measure for G6A C66A: 0.724.

As to C7G A51G, the self-cleavage worked out at 0.237. The same measure for G6C G17C: 0; for G5U G52C: 0.475.

For the variant G5U G52U, the self-cleavage stood at 0.277. G5U G52A: the self-cleavage was 0.283.

On to G6C C44G, for which the self-cleavage stood at 0.0692.

In the case of G6C A56C, the self-cleavage was 0.401. Consider G6U G31U, for which the self-cleavage was 0.121.

For the variant C7A G76A, the self-cleavage was found to be 0.868. Take G6C C66G: the self-cleavage amounted to 0.332. The value for G6C C48U was 0.277; that for G6C A43U was 0.0594; that for G6U C63U was 0.763. The same measure for G6A A16U: 0.446; for G6A A16C: 0.111. The same measure for G6U C48G: 0.374; for G6A C19A: 0.0346; for G6C C86A: 0.482.

Take C7A U9G: the self-cleavage was 0.396.

Regarding G6C A16G, the self-cleavage came to 0.151.

For G6C A16C, the self-cleavage was 0.712. Regarding G6U C49U, the self-cleavage turned out to be 0.485.

As to G6U C49A, the self-cleavage came to 0.582. The same measure for G6U C49G: 0.306. The value for G6C U47A was 0.0875; that for G6C U47G was 0.158. The value for G6A G68A was 0.704; that for C7G A42G was 0.111; that for C7G A42U was 0.0665.

Turning to G6U C85U, the self-cleavage came out at 0.646. The value for G6U C15G was 0.0875; that for G6U G74A was 0.16. The value for G6U G74U was 0.151. The value for C7A G74U was 0.201. Consider C7A G74A, for which the self-cleavage stood at 0.026. The value for G6A G52A was 0.831. The value for G6C U37A was 0.0791; that for G6C U37C was 0.923; that for G6A A77C was 0.178. The value for G6C G10C was 0.0875. For G6C G28C, the self-cleavage was determined as 0. For the variant C7G A8U, the self-cleavage was found to be 0.104. The same measure for G6U U72C: 0; for C7A C33A: 0.0639; for C7A C33G: 0.0519.

With G6U C7A, the self-cleavage is 0.227. The value for G6U U65C was 0.289. Take G6U U65A: the self-cleavage was 0.431.

Take G6U G28C: the self-cleavage came out at 0.0739. The value for G6U G28A was 0; that for G6U G76C was 0.676; that for G6A G34U was 0. The same measure for G6U U37G: 0.0554; for G6A U72A: 0.0875.

Consider G6A U72G, for which the self-cleavage is 0.246. The value for G5U U72C was 0.119; that for G5U U72G was 0.277; that for G5U U72A was 0.128. For G5U G53U, the self-cleavage turned out to be 0.268. The same measure for G5U G53C: 0.489; for G5U G53A: 0.332; for G6U G73U: 0. The value for G6U G73C was 0.266. For the variant G6C G35C, the self-cleavage was 0.0723. The value for G6C G35U was 0.256; that for G6A U69A was 0.525; that for G6A C14U was 0.87. The value for C7G C44U was 0.0462.

For C7A A45C, the self-cleavage is 0.0462. The value for C7A A45G was 0.705. The same measure for G6C C14A: 0; for G6C C14U: 0.453; for G6A C41A: 0.326.

For G6A C41G, the self-cleavage is 0.107. Take G6A C41U: the self-cleavage was 0.431. Turning to C7A A87G, the self-cleavage was determined as 0.521. The same measure for G6A C26U: 0.787. The value for G6A A45U was 0.486; that for G6C G38C was 0; that for C7G A71G was 0.151.

For the variant C7G A70G, the self-cleavage turned out to be 0.256. Turning to C7G A70C, the self-cleavage stood at 0.237. For C7A C64U, the self-cleavage was 0.491. C7A C64G: the self-cleavage was 0.429. The value for C7G C36A was 0.111; that for C7G C36U was 0.0504; that for C7G C36G was 0.0723.

With G6A G50U, the self-cleavage turned out to be 0.708. The same measure for C7A U69A: 0.449; for G6U G38C: 0.095. As to G6A U46A, the self-cleavage came to 0.208. As to G6C U46C, the self-cleavage is 0.145. The value for G6A A42G was 0; that for G6C G11A was 0; that for G6C G11C was 0.138. The same measure for G6A G82A: 0.252; for G6A G38C: 0. The value for G6A G38A was 0.0554; that for G6A A87U was 0.602. For the variant G6A U79C, the self-cleavage amounted to 0.128. The value for G6A U79A was 0.322; that for G6U G35C was 0.0437. The value for G6U U23G was 0.178; that for G6C A42G was 0; that for C7A C41U was 0.489. The same measure for G6C A77G: 0.0791; for C7G C33U: 0; for C7A C48G: 0.462. As to G6U C19G, the self-cleavage is 0.0692.

As to G6U C19A, the self-cleavage was found to be 0.0326. The value for G6U G68U was 0.554; that for G6U C58A was 0.672; that for G6U C58U was 0.617. Take G6U C58G: the self-cleavage was 0.628.

Take G6U C84A: the self-cleavage worked out at 0.375. The same measure for G6U C84U: 0.208; for C7A A77U: 0.0875. Consider C7A A77G, for which the self-cleavage amounted to 0.107. The value for C7A A77C was 0.115; that for C7A C24G was 0.0415. The same measure for G5U G76C: 0.227.

Consider G6U C61U, for which the self-cleavage amounted to 0.525.

Consider C7A G73U, for which the self-cleavage was found to be 0.128.

As to C7A G73C, the self-cleavage is 0.106. The value for G6U G50U was 0.475; that for G6U G50A was 0.372.

As to C7A C32U, the self-cleavage was determined as 0.227. The same measure for C7A C32A: 0.332; for G6U G39A: 0.0811; for G6C U65C: 0.277. The same measure for G6A C44G: 0.111. On to G6C G76U, for which the self-cleavage amounted to 0.604.

For G6C G76A, the self-cleavage is 0.297. With G6C G54C, the self-cleavage was 0.604. As for C7A G11A, the self-cleavage amounted to 0.0674.

Consider C7A G11C, for which the self-cleavage was 0.
